What all share (settings): protein: recombinant; tags: N-terminal 7xHis (pQTEV); blunt
For one data set, the target named is TraN_G47A-G48A (Enterococcus faecalis plasmid pIP501, UniProt Q7BVV5 1-122, G47A;G48A). The data set is described as follows: MST; MST in PBS-T (pH and temperature not stated); 50 nM RED-tris-NTA labelled His-protein, dsDNA 0.781 nM to 12.8 uM; Monolith NT.115, 60% LED and MST power.
Data set [1] deals with T1, TraN_H82A-R86A (Enterococcus faecalis plasmid pIP501, UniProt Q7BVV5 1-122, H82A;R86A). The description is as above.
The next data set deals with TraN_R23A-N24A-Q28A (Enterococcus faecalis plasmid pIP501, UniProt Q7BVV5 1-122, R23A;N24A;Q28A). The data set is described as above.
The target in a further data set is TraN (Enterococcus faecalis plasmid pIP501, UniProt Q7BVV5 1-122). The description is as above.
The target in data set [2] is T2, TraN_G100A-K101A (Enterococcus faecalis plasmid pIP501, UniProt Q7BVV5 1-122, G100A;K101A). The description is as above.
Data set [3] concerns the target T1, TraN_H82A-R86A. Put plainly: MST; no sigmoidal fit possible up to 12.8 uM DNA; extremely low affinity; MST in PBS-T (pH and temperature not stated); 50 nM RED-tris-NTA labelled His-protein, dsDNA 0.781 nM to 12.8 uM; Monolith NT.115, 60% LED and MST power.
The target of data set [4] is T2, TraN_G100A-K101A. The data set is described as above.

The values below come from publication PMC10877727, “Effect of TraN key residues involved in DNA binding on pIP501 transfer rates in Enterococcus faecalis”.

B1: oBS 34-mer (original TraN binding site) (dsDNA)
DNA 1: CGGAAATGTCAGGTTAAACATATTTACTTTTATA
DNA 2: TATAAAAGTAAATATGTTTAACCTGACATTTCCG
As for B1, the equilibrium dissociation constant (Kd) (in general, a measure of binding affinity in units of concentration) worked out at 48.8 ± 9.75 nM in the data set with TraN_G47A-G48A; 425 ± 102 nM with TraN_H82A-R86A [1]; 154 ± 19.5 nM with TraN_R23A-N24A-Q28A; 11.7 ± 2.65 nM in the data set with TraN; 406 ± 45.5 nM with TraN_G100A-K101A [2].

B2: random DNA 34-mer (dsDNA)
DNA 1: AGGGCGCACTTATACGCAGTAACTTCGTTACTTC
DNA 2: GAAGTAACGAAGTTACTGCGTATAAGTGCGCCCT
Turning to B2, the binding result in the data set with TraN_H82A-R86A [3] and in the data set with TraN_G100A-K101A [4] was “no binding” each time.
